Source: US20120039802A1 (published 2012)

Biological target: T1, cMet-Fc fusion protein (extracellular domain of the cMet receptor expressed as an Fc-fusion protein) (human, UniProt P08581 25-932)
T1 construct: extracellular domain; also called soluble cMet-Fc-fusion protein; soluble cMet receptor; not shown: Fc part
Test: phage ELISA on cMet-Fc, competitor HGF 500 ng/mL
Procedure: (§1) These assays were conducted using the peptide-displaying phage discovered from the initial selection and screening campaigns using the first generation peptide libraries. Briefly, 96-well plates were coated overnight at 4 C with 0.5 μg/mL of cMet-Fc fusion protein or TRAIL-Fc fusion protein (background). The plates were blocked for 2 hours at 37 C with 3% BSA in PBST. […] This was followed by an addition of 30 μL of peptide-displaying phage overnight culture to each well. The plates were incubated for 2 hours at room temperature, washed with PBST and cMet-binding peptide-displaying phage was detected using an HRP-conjugated anti-M13 antibody.

T1 sequence (P08581 25-932): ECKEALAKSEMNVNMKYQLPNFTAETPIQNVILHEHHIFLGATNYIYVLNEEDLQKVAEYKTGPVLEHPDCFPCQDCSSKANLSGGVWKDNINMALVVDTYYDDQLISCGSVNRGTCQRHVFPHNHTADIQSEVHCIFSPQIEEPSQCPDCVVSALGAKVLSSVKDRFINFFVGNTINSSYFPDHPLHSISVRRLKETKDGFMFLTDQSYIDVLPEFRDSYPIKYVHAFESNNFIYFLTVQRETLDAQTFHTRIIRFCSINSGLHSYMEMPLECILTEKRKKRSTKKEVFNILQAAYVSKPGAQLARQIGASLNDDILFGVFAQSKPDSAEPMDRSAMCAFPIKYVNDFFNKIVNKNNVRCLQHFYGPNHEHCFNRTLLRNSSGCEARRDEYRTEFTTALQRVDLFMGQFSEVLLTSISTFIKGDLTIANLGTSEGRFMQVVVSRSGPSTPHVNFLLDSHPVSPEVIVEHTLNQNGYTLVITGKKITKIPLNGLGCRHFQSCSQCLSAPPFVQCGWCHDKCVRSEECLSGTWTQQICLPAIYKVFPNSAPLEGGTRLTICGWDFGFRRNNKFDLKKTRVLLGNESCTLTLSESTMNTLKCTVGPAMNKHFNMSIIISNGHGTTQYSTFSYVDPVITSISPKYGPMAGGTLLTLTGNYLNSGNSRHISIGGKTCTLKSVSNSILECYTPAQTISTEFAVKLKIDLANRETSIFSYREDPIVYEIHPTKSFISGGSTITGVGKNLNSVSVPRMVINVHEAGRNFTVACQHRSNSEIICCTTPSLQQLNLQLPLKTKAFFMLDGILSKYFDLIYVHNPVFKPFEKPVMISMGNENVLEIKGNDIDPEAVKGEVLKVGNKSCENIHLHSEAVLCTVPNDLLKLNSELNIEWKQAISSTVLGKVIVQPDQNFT

Row | Binder | % of binding in the absence of HGF [%]
1 | GSPEMCMMFPFLYPCNHHAP [548-F07 peptide-displaying phage (SEQ ID NO: 369)] | 37
2 | AGGNWCSFYEELCEWLGT [445-E04 peptide-displaying phage (SEQ ID NO: 043)] | 102
3 | AGQYLCTQAALGCPEWGT [465-E11 peptide-displaying phage (SEQ ID NO: 029)] | 124
4 | AGPLFCFEWPSLCHWGGT [448-H02 peptide-displaying phage (SEQ ID NO: 033)] | 92
5 | GSWRFCGGEYSFQVCQDVAP [545-C02 peptide-displaying phage (SEQ ID NO: 365)] | 31
6 | AGVTNCNLSTMFCFLHGT [465-F08 peptide-displaying phage (SEQ ID NO: 026)] | 116
7 | AGKQWCVVWEETCDQLGT [465-F10 peptide-displaying phage (SEQ ID NO: 039)] | 42
8 | GSMLMCELWWCRFLAP [569-H10 peptide-displaying phage (SEQ ID NO: 004)] | 83
9 | AGYYGCKGPPTFECQWMGT [330-F05 peptide-displaying phage (SEQ ID NO: 049)] | 27
10 | AGTIRCNLAMMVCMFEGT [444-B08 peptide-displaying phage (SEQ ID NO: 028)] | 93
11 | AGQMWCAEKNSKCYQWGT [465-D12 peptide-displaying phage (SEQ ID NO: 030)] | 0
12 | ADAWMCEYFQWNCGDKGT [458-B05 peptide-displaying phage (SEQ ID NO: 046)] | 247
13 | AGHTICQHKALGCPANGT [465-C07 peptide-displaying phage (SEQ ID NO: 041)] | 138
14 | AGGHWCLELKHLCPPYGT [465-B06 peptide-displaying phage (SEQ ID NO: 044)] | 57
15 | AGTLSCSEEYKSCQLQGT [465-E09 peptide-displaying phage (SEQ ID NO: 027)] | 77

Biological target: T1, cMet-Fc fusion protein (extracellular …)
Test: phage ELISA on cMet-Fc, competitor HGF 100 ng/mL
Procedure: as §1

Row | Binder | % of binding in the absence of HGF [%]
16 | AGGNWCSFYEELCEWLGT [445-E04 peptide-displaying phage (SEQ ID NO: 043)] | 127
17 | GSHHTCLDGFAGWRCTEVAP [546-E02 peptide-displaying phage (SEQ ID NO: 366)] | 74
18 | AGQYLCTQAALGCPEWGT [465-E11 peptide-displaying phage (SEQ ID NO: 029)] | 33
19 | AGPLFCFEWPSLCHWGGT [448-H02 peptide-displaying phage (SEQ ID NO: 033)] | 113
20 | AGVTNCNLSTMFCFLHGT [465-F08 peptide-displaying phage (SEQ ID NO: 026)] | 68
21 | AGKQWCVVWEETCDQLGT [465-F10 peptide-displaying phage (SEQ ID NO: 039)] | 61
22 | GSMLMCELWWCRFLAP [569-H10 peptide-displaying phage (SEQ ID NO: 004)] | 98
23 | AGYYGCKGPPTFECQWMGT [330-F05 peptide-displaying phage (SEQ ID NO: 049)] | 51
24 | AGTIRCNLAMMVCMFEGT [444-B08 peptide-displaying phage (SEQ ID NO: 028)] | 111
25 | AGQMWCAEKNSKCYQWGT [465-D12 peptide-displaying phage (SEQ ID NO: 030)] | 34
26 | ADAWMCEYFQWNCGDKGT [458-B05 peptide-displaying phage (SEQ ID NO: 046)] | 201
27 | AGHTICQHKALGCPANGT [465-C07 peptide-displaying phage (SEQ ID NO: 041)] | 102
28 | AGGHWCLELKHLCPPYGT [465-B06 peptide-displaying phage (SEQ ID NO: 044)] | 89
29 | AGTLSCSEEYKSCQLQGT [465-E09 peptide-displaying phage (SEQ ID NO: 027)] | 60

Biological target: T2, human cMet expressed on 3T3 cells (human, UniProt P08581 25-1390)
T2 construct: whole, on cells; cells fixed with glutaraldehyde; also called cell surface-expressed human cMet; 3T3 cells that over-express human cMet
T2 sequence (P08581 25-1390): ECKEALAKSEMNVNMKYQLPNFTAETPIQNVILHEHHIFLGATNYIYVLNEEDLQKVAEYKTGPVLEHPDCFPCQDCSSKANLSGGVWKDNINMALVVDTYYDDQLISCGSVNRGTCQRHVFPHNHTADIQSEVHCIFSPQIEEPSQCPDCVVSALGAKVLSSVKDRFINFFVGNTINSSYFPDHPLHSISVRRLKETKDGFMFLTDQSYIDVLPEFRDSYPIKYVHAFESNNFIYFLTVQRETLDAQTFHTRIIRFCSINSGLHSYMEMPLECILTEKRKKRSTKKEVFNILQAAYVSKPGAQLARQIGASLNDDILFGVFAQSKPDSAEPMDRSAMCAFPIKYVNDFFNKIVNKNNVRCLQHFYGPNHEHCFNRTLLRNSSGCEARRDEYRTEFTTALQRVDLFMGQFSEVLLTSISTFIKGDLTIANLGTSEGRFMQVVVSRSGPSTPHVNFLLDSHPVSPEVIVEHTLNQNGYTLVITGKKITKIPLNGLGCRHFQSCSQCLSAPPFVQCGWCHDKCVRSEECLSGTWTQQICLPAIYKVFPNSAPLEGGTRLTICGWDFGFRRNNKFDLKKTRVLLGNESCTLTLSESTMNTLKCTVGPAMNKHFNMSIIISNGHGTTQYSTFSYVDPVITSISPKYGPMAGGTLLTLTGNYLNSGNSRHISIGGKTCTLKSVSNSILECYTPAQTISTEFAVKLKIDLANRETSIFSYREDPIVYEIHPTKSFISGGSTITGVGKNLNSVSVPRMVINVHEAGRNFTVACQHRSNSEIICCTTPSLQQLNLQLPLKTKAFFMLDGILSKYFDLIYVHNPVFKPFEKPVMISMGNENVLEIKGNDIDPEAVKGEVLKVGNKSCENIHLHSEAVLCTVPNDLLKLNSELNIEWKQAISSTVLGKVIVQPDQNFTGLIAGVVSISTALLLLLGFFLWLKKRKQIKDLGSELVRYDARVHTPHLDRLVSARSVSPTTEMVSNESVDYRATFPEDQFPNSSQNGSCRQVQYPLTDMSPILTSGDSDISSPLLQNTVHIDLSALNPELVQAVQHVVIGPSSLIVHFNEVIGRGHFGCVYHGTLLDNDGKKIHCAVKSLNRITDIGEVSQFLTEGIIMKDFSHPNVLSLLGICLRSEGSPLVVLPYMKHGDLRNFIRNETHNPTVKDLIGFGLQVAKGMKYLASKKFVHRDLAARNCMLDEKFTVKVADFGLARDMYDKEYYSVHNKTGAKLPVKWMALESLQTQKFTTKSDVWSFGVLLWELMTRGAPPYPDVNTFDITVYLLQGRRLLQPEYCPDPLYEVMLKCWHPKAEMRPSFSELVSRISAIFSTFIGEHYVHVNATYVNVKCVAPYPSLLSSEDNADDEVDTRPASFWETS
Test: whole cell phage ELISA, 3T3 human cMet vs 3T3
Procedure: Whole cell ELISAs were performed using 3T3 cells that over-express human cMet. […] Briefly, 96-well plates were seeded with 10⁵ cells per well. The plates were centrifuged for 5 minutes at 1600 rpm to pellet the cells. The resulting cell layer was fixed with 0.1% (v/v) glutaraldehyde for 12 minutes at 37 C. […] Peptide-displaying phage also were blocked in the above solution for 1 hour at 37 C. 100 μL of blocked phage was then added to each well and the plates were incubated for 1 hour at room temperature. The plates were washed with PBST. cMet-binding peptide-displaying phage were detected using an HRP-conjugated anti-M13 antibody.

Row | Binder | WC ELISA (fold over background) [fold]
30 | AGGNWCSFYEELCEWLGT [445-E04 peptide-displaying phage (SEQ ID NO: 043)] | 1.37
31 | AGQYLCTQAALGCPEWGT [465-E11 peptide-displaying phage (SEQ ID NO: 029)] | 1.23
32 | AGPLFCFEWPSLCHWGGT [448-H02 peptide-displaying phage (SEQ ID NO: 033)] | 1.43
33 | AGVTNCNLSTMFCFLHGT [465-F08 peptide-displaying phage (SEQ ID NO: 026)] | 1.3
34 | AGKQWCVVWEETCDQLGT [465-F10 peptide-displaying phage (SEQ ID NO: 039)] | 1.33
35 | GSMLMCELWWCRFLAP [569-H10 peptide-displaying phage (SEQ ID NO: 004)] | 1.27
36 | AGYYGCKGPPTFECQWMGT [330-F05 peptide-displaying phage (SEQ ID NO: 049)] | 1.33
37 | AGTIRCNLAMMVCMFEGT [444-B08 peptide-displaying phage (SEQ ID NO: 028)] | 1.43
38 | AGQMWCAEKNSKCYQWGT [465-D12 peptide-displaying phage (SEQ ID NO: 030)] | 1.27
39 | ADAWMCEYFQWNCGDKGT [458-B05 peptide-displaying phage (SEQ ID NO: 046)] | 1.33
40 | AGHTICQHKALGCPANGT [465-C07 peptide-displaying phage (SEQ ID NO: 041)] | 1.27
41 | AGGHWCLELKHLCPPYGT [465-B06 peptide-displaying phage (SEQ ID NO: 044)] | 1.23
42 | AGTLSCSEEYKSCQLQGT [465-E09 peptide-displaying phage (SEQ ID NO: 027)] | 1.3

Biological target: T1, cMet-Fc fusion protein (extracellular …)
Test: phage ELISA, cMet-Fc vs TRAIL-Fc
Procedure: Protein phage ELISAs using peptide-displaying phage isolates from the various selection campaigns were performed to determine specificity of the peptides for cMet versus an unrelated Fc-fusion protein (TRAIL-Fe). Briefly, 384-well plates were coated overnight at 4 C with 0.5 μg/mL of cMet-Fc fusion protein or TRAIL-Fc fusion protein (background). The plates were blocked for 2 hours 37 C with 3% (w/v) BSA in PBS containing 0.05% (v/v) Tween-20 (PBST). The plates were washed with PBST and 100 μL of peptide-displaying phage were added to each well. The plates were incubated for 2 hours at room temperature and washed with PBST. cMet-binding peptide-displaying phage were detected using an HRP-conjugated anti-M13 antibody.

Row | Binder | Protein ELISA (fold over background) [fold]
43 | AGGNWCSFYEELCEWLGT [445-E04 peptide-displaying phage (SEQ ID NO: 043)] | 4.2
44 | AGQYLCTQAALGCPEWGT [465-E11 peptide-displaying phage (SEQ ID NO: 029)] | 4.3
45 | AGPLFCFEWPSLCHWGGT [448-H02 peptide-displaying phage (SEQ ID NO: 033)] | 3.8
46 | AGVTNCNLSTMFCFLHGT [465-F08 peptide-displaying phage (SEQ ID NO: 026)] | 3.8
47 | AGKQWCVVWEETCDQLGT [465-F10 peptide-displaying phage (SEQ ID NO: 039)] | 3.7
48 | GSMLMCELWWCRFLAP [569-H10 peptide-displaying phage (SEQ ID NO: 004)] | 3.4
49 | AGYYGCKGPPTFECQWMGT [330-F05 peptide-displaying phage (SEQ ID NO: 049)] | 13.8
50 | AGTIRCNLAMMVCMFEGT [444-B08 peptide-displaying phage (SEQ ID NO: 028)] | 3.6
51 | AGQMWCAEKNSKCYQWGT [465-D12 peptide-displaying phage (SEQ ID NO: 030)] | 3.2
52 | ADAWMCEYFQWNCGDKGT [458-B05 peptide-displaying phage (SEQ ID NO: 046)] | 4.5
53 | AGHTICQHKALGCPANGT [465-C07 peptide-displaying phage (SEQ ID NO: 041)] | 3.1
54 | AGGHWCLELKHLCPPYGT [465-B06 peptide-displaying phage (SEQ ID NO: 044)] | 4.1
55 | AGTLSCSEEYKSCQLQGT [465-E09 peptide-displaying phage (SEQ ID NO: 027)] | 3.6
